Experimental data from publication PMC4861984, “Deciphering a unique biotin scavenging pathway with redundant genes in the probiotic bacterium Lactococcus lactis” (Scientific Reports, 2016).

T1: BirA2_LL (Lactococcus lactis IL1403, UniProt Q9CED9 1-250)
T1 sequence: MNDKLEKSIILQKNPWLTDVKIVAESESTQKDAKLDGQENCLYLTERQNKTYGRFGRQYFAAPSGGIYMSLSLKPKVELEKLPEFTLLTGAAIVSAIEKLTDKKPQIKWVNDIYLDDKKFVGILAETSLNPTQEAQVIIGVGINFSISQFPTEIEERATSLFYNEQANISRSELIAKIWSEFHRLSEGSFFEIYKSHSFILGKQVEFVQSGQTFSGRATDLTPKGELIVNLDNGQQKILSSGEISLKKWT

T2: BirA1_LL (Lactococcus lactis IL1403, UniProt Q9CEQ6 1-323)
T2 sequence: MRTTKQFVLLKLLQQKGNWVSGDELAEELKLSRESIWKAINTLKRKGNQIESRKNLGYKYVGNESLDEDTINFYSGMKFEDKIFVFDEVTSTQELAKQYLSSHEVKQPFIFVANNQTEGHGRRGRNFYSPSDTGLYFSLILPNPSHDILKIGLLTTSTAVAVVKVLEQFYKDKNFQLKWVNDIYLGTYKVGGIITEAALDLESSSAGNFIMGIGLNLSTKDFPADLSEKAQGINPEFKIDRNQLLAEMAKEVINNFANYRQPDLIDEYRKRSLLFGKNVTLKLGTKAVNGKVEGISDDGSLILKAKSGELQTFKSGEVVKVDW


Columns and labels:
[1] = target: T3, BirA_ec (Escherichia coli, UniProt P06709); assay: TLC of biotinoyl-5'-AMP from [alpha-32P]ATP; MALDI-TOF of biotinylated AccB87; assay type: biochemical; details: 20 uM biotin, 5 uM ATP, 5 mM MgCl2, 100 mM KCl, pH 8, 37 °C; AccB87 acceptor
T3 construct: gene birA
T3 sequence (P06709 whole entry): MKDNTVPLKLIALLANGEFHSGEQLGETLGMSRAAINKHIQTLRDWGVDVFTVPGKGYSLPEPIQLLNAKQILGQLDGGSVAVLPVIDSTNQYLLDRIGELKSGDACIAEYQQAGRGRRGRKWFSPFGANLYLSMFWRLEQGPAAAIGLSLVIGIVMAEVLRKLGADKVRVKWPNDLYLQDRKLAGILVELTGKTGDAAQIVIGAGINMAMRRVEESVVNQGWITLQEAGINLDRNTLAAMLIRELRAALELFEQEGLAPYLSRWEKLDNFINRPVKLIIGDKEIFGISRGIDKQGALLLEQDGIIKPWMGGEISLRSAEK

[2] = target: T1, BirA2_LL; assay: EMSA; 100 uM biotin + 100 uM ATP; 3-12 pmol protein; Roche binding buffer (composition, pH, temperature not stated), 0.2 pmol DIG probe in 15 ul, 100 uM biotin + 100 uM ATP, ~1 h; native PAGE 7% (Methods) or 7.5%; details: protein: recombinant; tags: His6 (pET28a); chain copies: 2; label: digoxigenin; blunt
[3] = target: T2, BirA1_LL; assay: EMSA; 100 uM biotin + 100 uM ATP (forms biotinoyl-AMP); 3-12 pmol protein; Roche binding buffer (composition, pH, temperature not stated), 0.2 pmol DIG probe in 15 ul, 100 uM biotin + 100 uM ATP, ~1 h; native PAGE 7% (Methods) or 7.5%; details: protein: recombinant; tags: His6 (pET28a); chain copies: 2; label: digoxigenin; blunt

Molecule | TLC of biotinoyl-5'-AMP from [alpha-32P]ATP; MALDI-TOF of biotinylated AccB87 [1] | binding result [2] | binding result [3]
O=C(O)CCCC[C@@H]1SC[C@@H]2NC(=O)N[C@@H]21 [biotin] | The formation of the biotinylated AccB87 by E. coli BirA |  | 
bioY_LL (bioY1 promoter probe) (dsDNA) DNA 1: CAAATAATAAAATTAACAGTTAACCTAAATTTGATTTTAGGGTTACTGTTTGATATG DNA 2: CATATCAAACAGTAACCCTAAAATCAAATTTAGGTTAACTGTTAATTTTATTATTTG |  | no binding | binds
